One test addresses T1, O9-bP.
T1 chain: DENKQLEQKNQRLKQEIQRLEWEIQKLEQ
Kind of test: two-hybrid library CCNG1.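 Also: natural log of median RNA to DNA barcode read ratio; higher means stronger binding.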

In another test the target is T2, O8-bP.
T2 chain: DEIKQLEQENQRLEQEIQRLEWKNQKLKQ
Kind of test: two-hybrid library CCNG1.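 Also: natural log of median RNA to DNA barcode read ratio; higher means stronger binding.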

The target in the next test is T3, O7-bP.
T3 chain: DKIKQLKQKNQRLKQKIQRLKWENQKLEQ
Kind of test: two-hybrid library CCNG1.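 Also: natural log of median RNA to DNA barcode read ratio; higher means stronger binding.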

For another test, the target named is T4, 4H895-AA.
T4 chain: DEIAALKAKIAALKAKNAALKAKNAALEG
Kind of test: two-hybrid library CCmax.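 Also: natural log of median RNA to DNA barcode read ratio; higher means stronger binding.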 The note with it: mean of both orientations.

In another test the target is T5, 4H465-AA.
T5 chain: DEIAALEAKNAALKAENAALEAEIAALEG
Kind of test: two-hybrid library CCmax.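 Also: natural log of median RNA to DNA barcode read ratio; higher means stronger binding.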 Particulars: mean of both orientations.

The target in another test is T6, 4H535-AA.
T6 chain: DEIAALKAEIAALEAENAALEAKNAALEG
Kind of test: two-hybrid library CCmax.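 Also: natural log of median RNA to DNA barcode read ratio; higher means stronger binding.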 The note with it: mean of both orientations.

The target in another test is T7, 4H3782-AA.
T7 chain: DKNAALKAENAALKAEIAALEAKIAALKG
The experiment in a line: two-hybrid library CCmax. The note with it: mean of both orientations.

The target of the next test is T8, 4H_APH.
T8 chain: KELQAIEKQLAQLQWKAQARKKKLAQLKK
Kind of test: two-hybrid library CCmax. The note with it: mean of both orientations.

The next test has as its target T9, 4H58-AA.
T9 chain: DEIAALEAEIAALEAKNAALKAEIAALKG
Kind of test: two-hybrid library CCmax. The note with it: mean of both orientations.

The target of the next test is GCN2_T. The experiment in a line: two-hybrid library CCmax.
The target of the next test is T10, 4H486-AA.
T10 chain: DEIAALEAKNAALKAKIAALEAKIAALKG
Kind of test: two-hybrid library CCmax. Particulars: mean of both orientations.

In the next test the target is T11, 4H3705-AA.
T11 chain: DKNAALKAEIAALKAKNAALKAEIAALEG
The experiment in a line: two-hybrid library CCmax.

The target of another test is T12, 4H_BCR.
T12 chain: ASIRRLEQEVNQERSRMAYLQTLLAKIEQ
The experiment in a line: two-hybrid library CCmax. The note with it: mean of both orientations.

Another test addresses 4H_GCN4. The experiment in a line: two-hybrid library CCmax. The note with it: mean of both orientations.
The next test deals with T13, O6-bP.
T13 chain: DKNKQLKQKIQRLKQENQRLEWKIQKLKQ
The experiment in a line: two-hybrid library CCNG1.

Sequence of 4H_GCN4 (chain, as listed by the source): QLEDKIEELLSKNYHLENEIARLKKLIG

B1: O7-bP (peptide)
chain: DKIKQLKQKNQRLKQKIQRLKWENQKLEQ
On to B1, for which the figures for the interaction score with O9-bP, in the test with O8-bP and with O7-bP were -1.09, 1.3 and -1.43, respectively.

B2: 4H3705-AA (peptide)
chain: DKNAALKAEIAALKAKNAALKAEIAALEG
In the case of B2, the interaction score with 4H895-AA was -1.78; with 4H465-AA, -1.21; with 4H535-AA, -0.26; in the test with 4H3782-AA it was -1.26; with 4H_APH, -2.68; with 4H58-AA it was 0.517. The interaction score with GCN2_T is -1.92; with 4H486-AA it was -1.65; with 4H3705-AA it was -1.2; with 4H_BCR, -1.43; with 4H_GCN4 it was -1.4.

B3: O6-bP (peptide)
chain: DKNKQLKQKIQRLKQENQRLEWKIQKLKQ
For B3, the interaction score with O9-bP is -0.21; with O8-bP, -2.38; with O6-bP, -0.702; with O7-bP, -0.618.

The record behind these values is paper PMC10397247.
